{
  "source": "patent US20220356216A1",
  "key": {"[1]": {"target": "mRFP1-sspB-Nano (mRFP1 fused to the sspB-Nano protein, his-MBP removed by TEV protease)", "experiment": "fluorescence microscopy of RFP-sspB-Nano recruitment to synthetic cells with membrane-bound protein; activation by coelenterazine (bioluminescence)"}, "[2]": {"target": "mRFP1-sspB-Nano (mRFP1 fused to the sspB-Nano protein, his-MBP removed by TEV protease)", "experiment": "fluorescence microscopy of RFP-sspB-Nano recruitment to synthetic cells with membrane-bound protein; activation by blue laser light"}, "[3]": {"target": "mRFP1-sspB-Nano (mRFP1 fused to the sspB-Nano protein, his-MBP removed by TEV protease)", "experiment": "fluorescence microscopy of RFP-sspB-Nano recruitment to synthetic cells with membrane-bound protein; activation by 488 nm laser"}},
  "data": [
    {"substance": "his-Gluc-iLID (fusion of N-terminal Gaussia luciferase and C-terminal iLID with a linker peptide and an N-terminal his-tag)", "values": [
      {"measurement": "fold increase of normalized mRFP1 intensity at the membrane against the dark conditions", "setting": "[1]", "result": 2.5, "unit": "fold"},
      {"measurement": "fold difference of mRFP1 intensity between dark and light conditions", "setting": "[2]", "result": "> 8", "unit": "fold"}
    ]},
    {"substance": "his-iLID (his-tagged improved light-induced dimer)", "values": [
      {"measurement": "fold increase of mRFP1 signal at the membrane against the dark conditions", "setting": "[3]", "result": 1.5, "unit": "fold"}
    ]}
  ]
}
